Laboratory results: a protein production outcome set (Wang et al. 2014)

Assay: label from the status in PepcDB records

Sequence	protein production
MSVDDSADVVVVGAGPAGSAAAAWAARAGRDVLVIDTATFPRDKPCGDGLTPRAVAELHQLGLGKWLADHIRHRGLRMSGFGGEVEVDWPGPSFPSYGSAVARLELDDRIRKVAEDTGARMLLGAKAVAVHHDSSRRVVSLTLADGTEVGCRQLIVADGARSPLGRKLGRRWHRETVYGVAVRGYLSTAYSDDPWLTSHLELRSPDGAVLPGYGWIFPLGNGEVNIGVGALSTSRRPADLALRPLISYYTDLRRDEWGFTGQPRAVSSALLPMGGAVSGVAGSNWMLIGDAAACVNPLNGEGIDYGLETGRLAAELLDSRDLARLWPSLLADRYGRGFSVARRLALLLTFPRFLPTTGPITMRSTALMNIAVRVMSNLVTDDDRDWVARVWRGGGQLSRLVDRRPPFS	failed
MSVDPKLIRQKIQRLDAGARPRVLDLFSGCGGISLGFQSAGFEIVAAVENDPDAARSHGLNFHHGEDRHSIPRNITVTSPAALATALGLGAAASAFDVIVGGPPCQAFARVGRSKLREIAEHPEAFRHDSRARLYIEYLAYVEACAPLAVVIENVPDMLNHGGHNLAAEIGEILASKDYVVRYTLLNAAFYGVPQMRERMILIAIRKELADDVEFPAPTHWIDLPSGYQGSRAVALKLATGRDLLTEATGGSAYKAAPEAVETLAPAVSTQQAIGDLPEIMARELLAEGALRRGTRRLDAMLPYGGHNQQNDYVKEMRTWPGFEGSSHVRDHVIRYLPRDYRIFAGLKPGDQYPEAHRYALSLFEAELERLHAQGKRPEDGSSEWDALKAAFVPPYDAGKFPNKWRKMEATTPARTLLAHLGKDGYSHIHYDSRQARPISVREAARLQSFPDGFRFAGTMNPAFRQIGNAVPPLLARAIAQTLRSQLVRGVATEDLPRVAGAGR	failed
MSVEIKRVDKHHCLDLVEIFIELEQYYFGDKAASEQDLANYLSHQVFSEHSGVKVIAAVEHDKVLGFATYTIMFPAPKLSGQMYMKDLFVSSSAPGKGIGLQLMKHLATIAITYNCQRLDWTAESTNPTARKFYKSIGASLIREKEYYRFEGNGLNKLAKSL	not failed
MSVFTKTSVASAATTCLFVLLWSSGAIVSKLGLAHASPFAFLLLRSALALAGLLLIGPLLGLRWPRTRGSILRALGTGCVLLGAYQIFYLLALDTHVTPGVMATVMGVQPILTVVLMERQRSWSRLFGLGLGLGGLIMVVYQGINLGGVSLAGMLFALLALVSMTFGSILQKRITDNPMGTLPLQYLAGFAMCALFAPLQPLHVEWTGSFVGALLWMGLVVSLLATLLLYRLIAKGNLVNVTSLFYLVPAVTAVMDLLIFGNRLAPLSLLGMGLIVVGLLFVFRKPAARLAEA	failed
MSVGCARIRRALRHGTSPARQHDAAAASHRRAPVVRIRMDIDAALGEQYVDYRCSRCGMVAQAAVAGYGTGLVVNGVSLSNAQLEAEVGAARAARLAPCPRCGHRGRPALLGVLLVGATVGVVAAMAIGFTVAELFHRSDPEGRLAPVVGTATFVAVVATMTALKLRSVRRRVRFHRVML	failed
MSVIHPLQNLLTSRDGSLVFAIIKNCILSFKYQSPNHWEFAGKWSDDFDKIQESRNTTAKEQQGQSSENENENKKLKSNKGDSIKRTAAKVPSPGLGAPPIYSYIRNLRLTSDESRLIACADSDKSLLVFDVDKTSKNVLKLRKRFCFSKRPNAISIAEDDTTVIIADKFGDVYSIDINSIPEEKFTQEPILGHVSMLTDVHLIKDSDGHQFIITSDRDEHIKISHYPQCFIVDKWLFGHKHFVSSICCGKDYLLLSAGGDDKIFAWDWKTGKNLSTFDYNSLIKPYLNDQHLAPPRFQNENNDIIEFAVSKIIKSKNLPFVAFFVEATKCIIILEMSEKQKGDLALKQIITFPYNVISLSAHNDEFQVTLDNKESSGVQKNFAKFIEYNLNENSFVVNNEKSNEFDSAIIQSVQGDSNLVTKKEEIYPLYNVSSLRKHGEHYS	failed
MSVIIAANNLCLQYQQNEPVIKHANLRIKRKDFVFISGPSGSGKSTLLRSFYGDLKLFSGKLEVCNINMNNASKATILDLRKNIGVVFQDYKLIQDYTIEQNIKLPMVICGIKKEECHLQLEKLLGHIDLRHKANRYPKELSGGEQQRVAMARAMANCPELILADEPTGNLDDYSSDKIWSLLRGMNTQLNATIVVVTHKFPKNFSAYHRKFYIEDGEVYEYS	failed
MSVKRVLRNTIRKEKEENRVTEPLTETPELSAKYAWFFDLDGTLAEIKPHPDQVVVPDTILQGLQLLATASDGALALISGRSMVELDALAKPYRFPLAGVHGAERRDINGKTHIVHLPDAIARDISVQLHTVIAQYPGAELEAKGMAFALHYRQAPQHEDALMTLAQRITQIWPQMALQQGKCVVEIKPKGTSKGEAIAAFMQEAPFIGRTPVFLGDDLTDESGFAVVNRLGGMSVKIGTGATQASWRLAGVPDVWSWLEMITTALQQKRENNRSDDYESFSRSI	failed
